Assay results taken from US20150344570A1 (published 2015).

T1: FcγRIIa H (human, UniProt P12318 34-217)
T1 construct: extracellular domain; also called FcγRIIa type H; 2aH
T1 sequence (looked up): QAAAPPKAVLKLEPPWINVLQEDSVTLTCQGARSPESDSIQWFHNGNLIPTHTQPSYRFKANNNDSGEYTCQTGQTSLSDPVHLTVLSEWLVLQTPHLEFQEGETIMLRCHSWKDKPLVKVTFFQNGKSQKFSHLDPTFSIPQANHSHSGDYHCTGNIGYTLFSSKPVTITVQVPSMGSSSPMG

T2: FcγRIIb (human, UniProt P31994 43-217)
T2 construct: extracellular domain; also called 2b; FcgRIIb
T2 sequence (looked up): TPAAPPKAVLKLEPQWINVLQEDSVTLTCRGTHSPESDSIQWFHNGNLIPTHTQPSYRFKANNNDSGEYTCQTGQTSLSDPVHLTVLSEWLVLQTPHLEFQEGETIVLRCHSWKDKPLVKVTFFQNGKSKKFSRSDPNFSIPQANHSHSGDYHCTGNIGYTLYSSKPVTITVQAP


Legend:
[1] = biological target: T1, FcγRIIa H; assay: ratio of He/Con_2aH to He/Con_2b (FcγRIIb); SPR
[2] = biological target: T1, FcγRIIa H; assay: SPR (Biacore), captured antibody, FcγR as analyte; GpH7-A5/GpH7-B3/GpL16-k0 = 100
Description: (§1) The heterodimerized antibodies He Abs in which one of the H chains was introduced with an alteration were assayed for their binding activities to each activating FcγR and inhibitory FcγR according to the method described in Example 4. […] The activating FcγRs in FIGS. 26, 27, 28, and 29 are FcγRIa, FcγRIIa (R), FcγRIIa (H), and FcγRIIIa, respectively.
(§2) Analysis of interaction between objective antibody and the FcγR was carried out using Biacore T100 (GE Healthcare). HBS-EP+ (GE Healthcare) was used as the running buffer, and the measurement temperature was set to 25° C. Chips produced by immobilizing the antigen peptide by the amine coupling method to a Series S Sencor Chip CM5 (GE Healthcare), or alternatively, chips produced by allowing preliminarily biotinylated antigen peptides to interact with and immobilize onto a Series S Sensor Chip SA (certified) (GE Healthcare) were used. Antibodies of interest were captured onto an antigen peptide-immobilized chip, and allowed to interact to each FcγR diluted with running buffer. To regenerate and repeatedly use the chip, the antibodies captured on the chip were washed off by reacting 10 mM glycine-HCl, pH 1.5.

[3] = biological target: T2, FcγRIIb; assay: as above
Description: as §1, §2

| He_2aH/2b (IIaH/IIb ratio) [1] | He/Con_2aH (relative binding) [2] [%] | He/Con_2b (relative binding) [3] [%] | Binder |
| --- | --- | --- | --- |
| 2.87 | 51.1 | 17.8 | GpH7-A5/GpH7-B3 variant E269_11K/GpL16-k0 (antibody, human IgG1, kappa, Heterodimerized anti-glypican-3 IgG1 (He Ab); mutation in the B3 H chain only; also called He Ab) heavy 1: not shown heavy 2: not shown light: DIVMTQSPLSLPVTPGEPASISCQASESLVHSNRNTYLHWYLQKPGQSPQLLIYKVSNRFSGVPDRFSGSGSGTDFTLKISRVEAEDVGVYYCSQNTHVPPTFGQGTKVEIERTVAAPSVFIFPPSDEQLKSGTASVVCLLNNFYPREAKVQWKVDNALQSGNSQESVTEQDSKDSTYSLSSTLTLSKADYEKHKVYACEVTHQGLSSPVTKSFNRGEC |
| 1.27 | 89.4 | 70.4 | GpH7-A5/GpH7-B3 variant Q295_11K/GpL16-k0 (antibody, human IgG1, kappa, Heterodimerized anti-glypican-3 IgG1 (He Ab); mutation in the B3 H chain only; also called He Ab) heavy 1: not shown heavy 2: not shown light: DIVMTQSPLSLPVTPGEPASISCQASESLVHSNRNTYLHWYLQKPGQSPQLLIYKVSNRFSGVPDRFSGSGSGTDFTLKISRVEAEDVGVYYCSQNTHVPPTFGQGTKVEIERTVAAPSVFIFPPSDEQLKSGTASVVCLLNNFYPREAKVQWKVDNALQSGNSQESVTEQDSKDSTYSLSSTLTLSKADYEKHKVYACEVTHQGLSSPVTKSFNRGEC |
| 1.37 | 69.6 | 50.6 | GpH7-A5/GpH7-B3 variant E269_14T/GpL16-k0 (antibody, human IgG1, kappa, Heterodimerized anti-glypican-3 IgG1 (He Ab); mutation in the B3 H chain only; also called He Ab) heavy 1: not shown heavy 2: not shown light: DIVMTQSPLSLPVTPGEPASISCQASESLVHSNRNTYLHWYLQKPGQSPQLLIYKVSNRFSGVPDRFSGSGSGTDFTLKISRVEAEDVGVYYCSQNTHVPPTFGQGTKVEIERTVAAPSVFIFPPSDEQLKSGTASVVCLLNNFYPREAKVQWKVDNALQSGNSQESVTEQDSKDSTYSLSSTLTLSKADYEKHKVYACEVTHQGLSSPVTKSFNRGEC |
| 1.53 | 103 | 67.5 | GpH7-A5/GpH7-B3 variant Q295_05P/GpL16-k0 (antibody, human IgG1, kappa, Heterodimerized anti-glypican-3 IgG1 (He Ab); mutation in the B3 H chain only; also called He Ab) heavy 1: not shown heavy 2: not shown light: DIVMTQSPLSLPVTPGEPASISCQASESLVHSNRNTYLHWYLQKPGQSPQLLIYKVSNRFSGVPDRFSGSGSGTDFTLKISRVEAEDVGVYYCSQNTHVPPTFGQGTKVEIERTVAAPSVFIFPPSDEQLKSGTASVVCLLNNFYPREAKVQWKVDNALQSGNSQESVTEQDSKDSTYSLSSTLTLSKADYEKHKVYACEVTHQGLSSPVTKSFNRGEC |
| 1.43 | 60.9 | 42.5 | GpH7-A5/GpH7-B3 variant E269_20W/GpL16-k0 (antibody, human IgG1, kappa, Heterodimerized anti-glypican-3 IgG1 (He Ab); mutation in the B3 H chain only; also called He Ab) heavy 1: not shown heavy 2: not shown light: DIVMTQSPLSLPVTPGEPASISCQASESLVHSNRNTYLHWYLQKPGQSPQLLIYKVSNRFSGVPDRFSGSGSGTDFTLKISRVEAEDVGVYYCSQNTHVPPTFGQGTKVEIERTVAAPSVFIFPPSDEQLKSGTASVVCLLNNFYPREAKVQWKVDNALQSGNSQESVTEQDSKDSTYSLSSTLTLSKADYEKHKVYACEVTHQGLSSPVTKSFNRGEC |
| 1.53 | 59 | 38.5 | GpH7-A5/GpH7-B3 variant E269_16H/GpL16-k0 (antibody, human IgG1, kappa, Heterodimerized anti-glypican-3 IgG1 (He Ab); mutation in the B3 H chain only; also called He Ab) heavy 1: not shown heavy 2: not shown light: DIVMTQSPLSLPVTPGEPASISCQASESLVHSNRNTYLHWYLQKPGQSPQLLIYKVSNRFSGVPDRFSGSGSGTDFTLKISRVEAEDVGVYYCSQNTHVPPTFGQGTKVEIERTVAAPSVFIFPPSDEQLKSGTASVVCLLNNFYPREAKVQWKVDNALQSGNSQESVTEQDSKDSTYSLSSTLTLSKADYEKHKVYACEVTHQGLSSPVTKSFNRGEC |
| 1.57 | 70.4 | 44.7 | GpH7-A5/GpH7-B3 variant E269_15Y/GpL16-k0 (antibody, human IgG1, kappa, Heterodimerized anti-glypican-3 IgG1 (He Ab); mutation in the B3 H chain only; also called He Ab) heavy 1: not shown heavy 2: not shown light: DIVMTQSPLSLPVTPGEPASISCQASESLVHSNRNTYLHWYLQKPGQSPQLLIYKVSNRFSGVPDRFSGSGSGTDFTLKISRVEAEDVGVYYCSQNTHVPPTFGQGTKVEIERTVAAPSVFIFPPSDEQLKSGTASVVCLLNNFYPREAKVQWKVDNALQSGNSQESVTEQDSKDSTYSLSSTLTLSKADYEKHKVYACEVTHQGLSSPVTKSFNRGEC |
| 1.33 | 77.4 | 58.1 | GpH7-A5/GpH7-B3 variant P271_20W/GpL16-k0 (antibody, human IgG1, kappa, Heterodimerized anti-glypican-3 IgG1 (He Ab); mutation in the B3 H chain only; also called He Ab) heavy 1: not shown heavy 2: not shown light: DIVMTQSPLSLPVTPGEPASISCQASESLVHSNRNTYLHWYLQKPGQSPQLLIYKVSNRFSGVPDRFSGSGSGTDFTLKISRVEAEDVGVYYCSQNTHVPPTFGQGTKVEIERTVAAPSVFIFPPSDEQLKSGTASVVCLLNNFYPREAKVQWKVDNALQSGNSQESVTEQDSKDSTYSLSSTLTLSKADYEKHKVYACEVTHQGLSSPVTKSFNRGEC |
| 1.21 | 102 | 84.3 | GpH7-A5/GpH7-B3 variant Q295_07I/GpL16-k0 (antibody, human IgG1, kappa, Heterodimerized anti-glypican-3 IgG1 (He Ab); mutation in the B3 H chain only; also called He Ab) heavy 1: not shown heavy 2: not shown light: DIVMTQSPLSLPVTPGEPASISCQASESLVHSNRNTYLHWYLQKPGQSPQLLIYKVSNRFSGVPDRFSGSGSGTDFTLKISRVEAEDVGVYYCSQNTHVPPTFGQGTKVEIERTVAAPSVFIFPPSDEQLKSGTASVVCLLNNFYPREAKVQWKVDNALQSGNSQESVTEQDSKDSTYSLSSTLTLSKADYEKHKVYACEVTHQGLSSPVTKSFNRGEC |
| 1.22 | 92 | 75.7 | GpH7-A5/GpH7-B3 variant Q295_03V/GpL16-k0 (antibody, human IgG1, kappa, Heterodimerized anti-glypican-3 IgG1 (He Ab); mutation in the B3 H chain only; also called He Ab) heavy 1: not shown heavy 2: not shown light: DIVMTQSPLSLPVTPGEPASISCQASESLVHSNRNTYLHWYLQKPGQSPQLLIYKVSNRFSGVPDRFSGSGSGTDFTLKISRVEAEDVGVYYCSQNTHVPPTFGQGTKVEIERTVAAPSVFIFPPSDEQLKSGTASVVCLLNNFYPREAKVQWKVDNALQSGNSQESVTEQDSKDSTYSLSSTLTLSKADYEKHKVYACEVTHQGLSSPVTKSFNRGEC |
| 1.44 | 64.4 | 44.8 | GpH7-A5/GpH7-B3 variant E269_18N/GpL16-k0 (antibody, human IgG1, kappa, Heterodimerized anti-glypican-3 IgG1 (He Ab); mutation in the B3 H chain only; also called He Ab) heavy 1: not shown heavy 2: not shown light: DIVMTQSPLSLPVTPGEPASISCQASESLVHSNRNTYLHWYLQKPGQSPQLLIYKVSNRFSGVPDRFSGSGSGTDFTLKISRVEAEDVGVYYCSQNTHVPPTFGQGTKVEIERTVAAPSVFIFPPSDEQLKSGTASVVCLLNNFYPREAKVQWKVDNALQSGNSQESVTEQDSKDSTYSLSSTLTLSKADYEKHKVYACEVTHQGLSSPVTKSFNRGEC |
| 1.81 | 80.2 | 44.3 | GpH7-A5/GpH7-B3 variant E269_19Q/GpL16-k0 (antibody, human IgG1, kappa, Heterodimerized anti-glypican-3 IgG1 (He Ab); mutation in the B3 H chain only; also called He Ab) heavy 1: not shown heavy 2: not shown light: DIVMTQSPLSLPVTPGEPASISCQASESLVHSNRNTYLHWYLQKPGQSPQLLIYKVSNRFSGVPDRFSGSGSGTDFTLKISRVEAEDVGVYYCSQNTHVPPTFGQGTKVEIERTVAAPSVFIFPPSDEQLKSGTASVVCLLNNFYPREAKVQWKVDNALQSGNSQESVTEQDSKDSTYSLSSTLTLSKADYEKHKVYACEVTHQGLSSPVTKSFNRGEC |
| 1.46 | 70 | 47.8 | GpH7-A5/GpH7-B3 variant E269_13S/GpL16-k0 (antibody, human IgG1, kappa, Heterodimerized anti-glypican-3 IgG1 (He Ab); mutation in the B3 H chain only; also called He Ab) heavy 1: not shown heavy 2: not shown light: DIVMTQSPLSLPVTPGEPASISCQASESLVHSNRNTYLHWYLQKPGQSPQLLIYKVSNRFSGVPDRFSGSGSGTDFTLKISRVEAEDVGVYYCSQNTHVPPTFGQGTKVEIERTVAAPSVFIFPPSDEQLKSGTASVVCLLNNFYPREAKVQWKVDNALQSGNSQESVTEQDSKDSTYSLSSTLTLSKADYEKHKVYACEVTHQGLSSPVTKSFNRGEC |
| 1.86 | 46.8 | 25.2 | GpH7-A5/GpH7-B3 variant E269_12R/GpL16-k0 (antibody, human IgG1, kappa, Heterodimerized anti-glypican-3 IgG1 (He Ab); mutation in the B3 H chain only; also called He Ab) heavy 1: not shown heavy 2: not shown light: DIVMTQSPLSLPVTPGEPASISCQASESLVHSNRNTYLHWYLQKPGQSPQLLIYKVSNRFSGVPDRFSGSGSGTDFTLKISRVEAEDVGVYYCSQNTHVPPTFGQGTKVEIERTVAAPSVFIFPPSDEQLKSGTASVVCLLNNFYPREAKVQWKVDNALQSGNSQESVTEQDSKDSTYSLSSTLTLSKADYEKHKVYACEVTHQGLSSPVTKSFNRGEC |
| 1.24 | 64.6 | 52.3 | GpH7-A5/GpH7-B3 variant P271_15Y/GpL16-k0 (antibody, human IgG1, kappa, Heterodimerized anti-glypican-3 IgG1 (He Ab); mutation in the B3 H chain only; also called He Ab) heavy 1: not shown heavy 2: not shown light: DIVMTQSPLSLPVTPGEPASISCQASESLVHSNRNTYLHWYLQKPGQSPQLLIYKVSNRFSGVPDRFSGSGSGTDFTLKISRVEAEDVGVYYCSQNTHVPPTFGQGTKVEIERTVAAPSVFIFPPSDEQLKSGTASVVCLLNNFYPREAKVQWKVDNALQSGNSQESVTEQDSKDSTYSLSSTLTLSKADYEKHKVYACEVTHQGLSSPVTKSFNRGEC |
